US20250042973A1 (WUHAN UNIVERSITY, published 2025)

Target: the molecule itself
Test: self-association (homodimer) seen on SDS-PAGE / Western blot after nickel affinity purification
Description: In a process of Western Blot, Gel block of samples from the Electrophoresis was electro-transferred to NC membrane at 100 V for 90 min. The NC membrane was then washed with TBST for three times, and blocked with 5% skim milk on a shaker for 2 h. After blocking, the NC membrane was then washed with TBST for three times, and incubated with GPER antibody (Invitrogen, PA5-28647) overnight. After that, the NC membrane was then washed with TBST for three times, and incubated with secondary antibody (HRP-labeled Goat Anti-Rabbit IgG, ABclonal, AS014, BR) at room temperature for 3 h, washed with TBST for three times, visualized the result in the dark room with DAB.

B1: recombinant protein of GPER (G protein-coupled estrogen receptor) (receptor)
chain: LSHPLLGTALANGTGELSEHQQYVIGLFLSCLYTIFLFPIGFVGNILILVVNISFREKMTIPDLYFINLAVADLILVADSLIEVFNLHERYYDIAVLCTFMSLFLQVNMYSSVFFLTWMSFDRYIALARAMRCSLFRTKHHARLSCGLIWMASVSATLVPFTAVHLQHTDEACFCFADVREVQWLEVTLGFIVPFAIIGLCYSLIVRVLVRAHRMKKYTCTVCGYIYNPEDGDPDNGVNPGTDFKDIPDDWVCPLCGVGKDQFEEVEEHRGLRPRRQKALRMILAVVLVFFVCWLPENVFISVHLLQRTQPGAAPCKQSFRHAHPLTGHIVNLAAFSNSCLNPLIYSFLGETFRDKLRLYIEQKTNL
notes: The source plasmid is wild-type GPER (pDNR-Dual, BC011634, HsCD00005110); The purified protein is reported as monomer and dimer; also called GPER protein
  binding result: binds
